In US5663314 one finds Phosphorylation data, which are given here for one molecule.

In one experiment the target is T1, Band-3 peptide.
T1 sequence (peptide): MEELQDDYEDDMEERR

For another experiment, the target named is T2, ETE peptide.
T2 sequence (peptide): RRREEETEEE

Experiment [1] deals with Heat-denatured ERK2 (Rattus norvegicus (Rat)) (UniProt P63086).
In another experiment the target is T3, RR-SRC peptide.
T3 sequence (peptide): RRLIEDAEYAARG

Experiment [2] deals with Recombinant ERK2 expressed in E. coli (Rattus norvegicus (Rat)) (UniProt P63086).
The target of the next experiment is T4, S6 peptide.
T4 sequence (peptide): RRLSSLRA

Another experiment addresses T5, Syntide-2.
T5 sequence (peptide): PLARTLSVAGLPGKK

A further experiment has as its target T6, TEY peptide.
T6 sequence (peptide): PEHDHTGFLTEYVATRWYR

Experiment [3] deals with bovine myelin basic protein (bovine) (UniProt P02687).
Sequence of bovine myelin basic protein (bovine) (P02687 whole entry): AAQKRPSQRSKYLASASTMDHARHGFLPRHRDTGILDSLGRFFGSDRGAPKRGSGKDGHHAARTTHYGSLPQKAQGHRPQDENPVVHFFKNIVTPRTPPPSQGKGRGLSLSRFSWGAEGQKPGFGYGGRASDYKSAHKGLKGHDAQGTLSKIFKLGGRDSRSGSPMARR

Where only a bound is given, the exact number is not on record here.

B1: MAPK activator 2 (MAPKK1b), 45 kDa polypeptide purified from EGF-stimulated A431 cells (enzyme)
chain: MPKKKPTPIQLNPAPDGSAVNGTSSAETNLEALQKKLEELELDEQQRKRLEAFLTQKQKVGELKDDDFEKISELGAGNGGVVFKVSHKPSGLVMARKLIHLEIKPAIRNQIIRELQVLHECNSPYIVGFYGAFYSDGEISICMEHMVIKGLTYLREKHKIMHRDVKPSNILVNSRGEIKLCDFGVSGQLIDSMANSFVGTRSYMSPERLQGTHYSVQSDIWSMGLSLVEMAVGRYPIPPPDAKELELMFGCQVEGDAAETPPRPRTTPGRPLSSYGMDSRPPMAIFQLLDYIVNEPPPKLPSGVFSLEFQDFVNKCLIKNPAERADLKQLMVHAFIKRSDAEEVDFAGWLCSTIGLNQPSTPTHAAGV
Take B1: the Phosphorylation was less than 0.005 nmol/min/mg with Band-3 peptide; less than 0.005 nmol/min/mg with Casein; less than 0.005 nmol/min/mg with Denatured enolase; less than 0.005 nmol/min/mg in the experiment with ETE peptide; less than 0.005 nmol/min/mg in [1]; 0.04 nmol/min/mg in the experiment with Histones. In addition, the Phosphorylation was less than 0.005 nmol/min/mg with Kemptide; 0.03 nmol/min/mg with Protamine; 0.005 nmol/min/mg with RR-SRC peptide; less than 0.01 nmol/min/mg in the experiment with Raf-1; 60 nmol/min/mg in experiment [2]; less than 0.005 nmol/min/mg with Ribosomal S6 protein. In addition, the Phosphorylation in the experiment with S6 peptide was 0.07 nmol/min/mg; with Syntide-2, 0.04 nmol/min/mg; with TEY peptide it was 0.005 nmol/min/mg; in [3], 0.12 nmol/min/mg; in the experiment with poly (Glu^80 -Tyr^20), less than 0.005 nmol/min/mg.
